Results as given in patent US20220306683A1, “PROXIMITY-BASED LABELING SYSTEMS AND APPLICATIONS THEREOF” (The Trustees of Princeton University, priority 2019, published 2022).
Ends that are not written are not given here.

Target: E3 ligase MDM2 (Homo sapiens, UniProt Q00987)
Assay: Peptide-photocatalyst conjugate labeling of MDM2 versus BSA
Conditions: peptide conjugated to photocatalyst through azido-lysine

Chain of E3 ligase MDM2 (Q00987 whole entry): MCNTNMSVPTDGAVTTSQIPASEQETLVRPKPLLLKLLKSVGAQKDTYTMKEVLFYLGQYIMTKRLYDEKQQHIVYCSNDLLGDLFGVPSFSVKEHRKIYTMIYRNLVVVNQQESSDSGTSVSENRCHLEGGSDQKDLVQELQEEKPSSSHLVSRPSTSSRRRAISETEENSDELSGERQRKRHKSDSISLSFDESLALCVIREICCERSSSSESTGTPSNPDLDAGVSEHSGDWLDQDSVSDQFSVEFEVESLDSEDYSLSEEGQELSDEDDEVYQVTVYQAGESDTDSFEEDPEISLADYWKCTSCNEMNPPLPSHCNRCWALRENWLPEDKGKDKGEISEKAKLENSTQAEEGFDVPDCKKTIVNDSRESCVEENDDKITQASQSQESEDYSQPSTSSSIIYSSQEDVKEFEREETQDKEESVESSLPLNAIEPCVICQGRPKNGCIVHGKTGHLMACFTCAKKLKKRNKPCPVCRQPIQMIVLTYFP

- enrichment of target protein MDM2 compared to free photocatalyst control: 3 fold
Substance: ATSP7041: α-helical stapled cyclic peptide targeting MDM2, conjugated to the photocatalyst through a modified azido-lysine (KLTFAEYWAQAASAA; staple (positions not given here); also: stapled, places not given here, photocatalyst conjugated via azido-lysine, place not given here)
